Data as given in patent US20090258001A1.

Legend:
[1] = target: CD3 (CD3/TCR complex) on CD4+ and CD8+ T cells of patients (human) (UniProt P07766)
[2] = target: CD3 (CD3/TCR complex) on CD4+ and CD8+ T cells of patients (human) (UniProt P07766); assay: flow cytometry of CD4+ T cells, anti-human IgG; Example 3 Cohort 3, end of 0.1 mg infusion
[3] = target: CD3 (CD3/TCR complex) on CD4+ and CD8+ T cells of patients (human) (UniProt P07766); assay: flow cytometry of CD4+ T cells, anti-human IgG; Example 3 Cohort 3, end of 0.3 mg infusion
[4] = target: CD3 (CD3/TCR complex) on CD4+ and CD8+ T cells of patients (human) (UniProt P07766); assay: flow cytometry of CD4+ T cells, anti-human IgG; Example 3 Cohort 3, end of 0.5 mg infusion
[5] = target: CD3 (CD3/TCR complex) on CD4+ and CD8+ T cells of patients (human) (UniProt P07766); assay: flow cytometry of CD4+ T cells, anti-human IgG; Example 4 Cohort A, end of 0.1 mg infusion
[6] = target: CD3 (CD3/TCR complex) on CD4+ and CD8+ T cells of patients (human) (UniProt P07766); assay: flow cytometry of CD4+ T cells, anti-human IgG; Example 4 Cohort B, end of 0.1 mg infusion
[7] = target: CD3 (CD3/TCR complex) on CD4+ and CD8+ T cells of patients (human) (UniProt P07766); assay: flow cytometry of CD4+ T cells, anti-human IgG; Example 4 Cohort B, end of 0.3 mg infusion
[8] = target: CD3 (CD3/TCR complex) on CD4+ and CD8+ T cells of patients (human) (UniProt P07766); assay: flow cytometry of CD4+ T cells, anti-human IgG; Example 4 Cohort A*, end of 0.1 mg infusion
[9] = target: CD3 (CD3/TCR complex) on CD4+ and CD8+ T cells of patients (human) (UniProt P07766); assay: flow cytometry of CD4+ T cells, anti-human IgG; Example 4 Cohort A*, end of 0.05 mg infusion
[10] = target: CD3 (CD3/TCR complex) on CD4+ and CD8+ T cells of patients (human) (UniProt P07766); assay: flow cytometry of CD4+ T cells, free CD3 sites by biotinylated TRX4; Example 4 Cohort B, Day 5
[11] = target: CD3 (CD3/TCR complex) on CD4+ and CD8+ T cells of patients (human) (UniProt P07766); assay: flow cytometry of CD4+ T cells, free CD3 sites by biotinylated TRX4; Example 4 Cohort A, 0.2 mg
[12] = target: CD3 (CD3/TCR complex) on CD4+ and CD8+ T cells of patients (human) (UniProt P07766); assay: flow cytometry of CD4+ T cells, free CD3 sites by biotinylated TRX4; Example 4 Cohort A, 0.5 mg
[13] = target: CD3 (CD3/TCR complex) on CD4+ and CD8+ T cells of patients (human) (UniProt P07766); assay: flow cytometry of CD4+ T cells, free CD3 sites by biotinylated TRX4; Example 4 Cohort C, 0.1 mg
[14] = target: CD3 (CD3/TCR complex) on CD4+ and CD8+ T cells of patients (human) (UniProt P07766); assay: flow cytometry of CD4+ T cells, free CD3 sites by biotinylated TRX4; Example 4 Cohort C, 0.3 mg
[15] = target: CD3 (CD3/TCR complex) on CD4+ and CD8+ T cells of patients (human) (UniProt P07766); assay: flow cytometry of CD4+ T cells, free CD3 sites by biotinylated TRX4; Example 4 Cohort A*, 0.1 mg
[16] = target: CD3 (CD3/TCR complex) on CD4+ and CD8+ T cells of patients (human) (UniProt P07766); assay: flow cytometry of CD4+ T cells, free CD3 sites by biotinylated TRX4; Example 4 Cohort A*, 0.05 mg
[17] = target: CD3 (CD3/TCR complex) on CD4+ and CD8+ T cells of patients (human) (UniProt P07766); assay: flow cytometry of CD4+ T cells, anti-human IgG; Example 4 Cohort C, 2 hours after 1.0 mg infusion
[18] = target: CD3 (CD3/TCR complex) on CD4+ and CD8+ T cells of patients (human) (UniProt P07766); assay: flow cytometry of CD4+ T cells, anti-human IgG; Example 4 Cohort C, about 24 hours after 1.0 mg infusion
[19] = target: CD3 (CD3/TCR complex) on CD4+ and CD8+ T cells of patients (human) (UniProt P07766); assay: flow cytometry of CD4+ T cells, anti-human IgG; Example 4 Cohort B, about 24 hours after 0.75 mg infusion
[20] = target: CD3 (CD3/TCR complex) on CD4+ and CD8+ T cells of patients (human) (UniProt P07766); assay: flow cytometry of CD4+ T cells, free CD3 sites by biotinylated TRX4; Example 3 Cohort 2, third 0.5 mg dose
[21] = target: CD3 (CD3/TCR complex) on CD4+ and CD8+ T cells of patients (human) (UniProt P07766); assay: flow cytometry of CD4+ T cells, free CD3 sites by biotinylated TRX4; Example 4 Cohort A, day after last infusion
[22] = target: CD3 (CD3/TCR complex) on CD4+ and CD8+ T cells of patients (human) (UniProt P07766); assay: flow cytometry of CD4+ T cells, free CD3 sites by biotinylated TRX4; Example 4 Cohort A, 2 hours after last infusion
[23] = target: CD3 (CD3/TCR complex) on CD4+ and CD8+ T cells of patients (human) (UniProt P07766); assay: flow cytometry of CD4+ T cells, free CD3 sites by biotinylated TRX4; Example 4 Cohort C, 2 hours after last infusion
[24] = target: CD3 (CD3/TCR complex) on CD4+ and CD8+ T cells of patients (human) (UniProt P07766); assay: flow cytometry of CD4+ T cells, free CD3 sites by biotinylated TRX4; Example 3 Cohort 1, end of first 0.1 mg infusion
[25] = target: CD3 (CD3/TCR complex) on CD4+ and CD8+ T cells of patients (human) (UniProt P07766); assay: flow cytometry of CD4+ T cells, free CD3 sites by biotinylated TRX4; Example 3 Cohort 3, 2 hours after 0.5 mg infusion

UniProt P07766, sequence (P07766 23-207, chain 1 of 3): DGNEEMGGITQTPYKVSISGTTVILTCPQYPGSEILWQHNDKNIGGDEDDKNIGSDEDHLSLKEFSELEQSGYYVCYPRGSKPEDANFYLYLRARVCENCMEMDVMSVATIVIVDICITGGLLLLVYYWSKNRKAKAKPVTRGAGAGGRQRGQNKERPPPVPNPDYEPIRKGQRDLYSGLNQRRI
UniProt P07766, sequence (chain, as listed by the source, chain 2 of 3): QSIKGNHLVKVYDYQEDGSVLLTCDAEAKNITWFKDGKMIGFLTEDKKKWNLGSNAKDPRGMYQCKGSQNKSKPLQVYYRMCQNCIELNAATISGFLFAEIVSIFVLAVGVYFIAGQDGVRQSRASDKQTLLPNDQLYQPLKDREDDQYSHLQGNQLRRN
UniProt P07766, sequence (chain, as listed by the source, chain 3 of 3): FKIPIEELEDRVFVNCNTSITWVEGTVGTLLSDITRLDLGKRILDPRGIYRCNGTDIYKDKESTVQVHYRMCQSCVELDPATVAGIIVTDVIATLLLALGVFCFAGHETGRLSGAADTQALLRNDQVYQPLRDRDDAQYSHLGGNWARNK

CD3/TCR modulation (decrease in MESF of TCR αβ on T cells, stained with non-competing antibody BMA031) [1]: > 80%
cell-bound TRX4 (MESF of anti-human IgG) [2]: 100000 MESF units
cell-bound TRX4 (MESF of anti-human IgG) [3]: 300000 MESF units
cell-bound TRX4 (MESF of anti-human IgG) [4]: 800000 MESF units
cell-bound TRX4 (MESF of anti-human IgG) [5]: 200000 MESF units
cell-bound TRX4 (MESF of anti-human IgG) [6]: 2e+06 MESF units
cell-bound TRX4 (MESF of anti-human IgG) [7]: 420000 MESF units
cell-bound TRX4 (MESF of anti-human IgG) [8]: 700000 MESF units
cell-bound TRX4 (MESF of anti-human IgG) [9]: 300000 MESF units
percent saturation of CD3 [10]: 40%
percent saturation of CD3 [11]: 70%
percent saturation of CD3 [12]: 95%
percent saturation of CD3 [13]: 50%
percent saturation of CD3 [14]: 99%
percent saturation of CD3 [15]: 70%
percent saturation of CD3 [16]: 50%
cell-bound TRX4 (MESF of anti-human IgG) [17]: 600000 MESF units
cell-bound TRX4 (MESF of anti-human IgG) [18]: 200000 MESF units
cell-bound TRX4 (MESF of anti-human IgG) [19]: 200000 MESF units
percent saturation of CD3 [20]: 95%
percent saturation of CD3 [21]: 35%
percent saturation of CD3 [22]: 60%
percent saturation of CD3 [23]: 50%
percent saturation of CD3 [24]: 37%
percent saturation of CD3 [25]: 45%
Substance: TRX4 antibody
